Among the data in US20240115721A1 (published 2024) are Kd values, retold here.

Holding throughout (test): BLI (Octet HTX)
The target of assay [1] is T1, Recombinant Human DLL3 Protein (amino acids Ala27-Ala479, cat #9749-DL, R&D Systems) (UniProt Q9NYJ7 27-479).
T1 chain: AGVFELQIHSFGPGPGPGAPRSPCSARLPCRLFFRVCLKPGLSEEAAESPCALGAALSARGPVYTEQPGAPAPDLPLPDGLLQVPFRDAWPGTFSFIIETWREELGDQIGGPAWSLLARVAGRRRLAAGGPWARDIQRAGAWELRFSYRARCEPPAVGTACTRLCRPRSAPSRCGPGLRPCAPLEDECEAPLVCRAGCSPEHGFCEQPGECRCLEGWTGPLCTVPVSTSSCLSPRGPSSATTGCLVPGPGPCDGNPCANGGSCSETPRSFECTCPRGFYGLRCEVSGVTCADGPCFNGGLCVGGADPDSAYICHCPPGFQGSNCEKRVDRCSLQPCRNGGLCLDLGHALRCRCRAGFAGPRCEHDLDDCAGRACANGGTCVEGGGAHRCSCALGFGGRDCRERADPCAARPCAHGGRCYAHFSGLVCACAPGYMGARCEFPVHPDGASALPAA

The target of assay [2] is T1, Recombinant Human DLL3 Protein (amino …).
Assay [3] has the same target.

Where two headings read alike, the source gives them in different places.

B1: 2-C8-A (antibody, V domains shown)
VH: EVQLVESGGGLVQPGGSQRLSCAASGFTFSSYWMNWVRQAPGKGLEWVANIKEDGSEKYYVDSVKGRFTISRDNAKNSLYLQMNSLRAEDTAVYYCARDPGWAPFDYWGQGTLVTVSS
VL: DIQMSQSPSSLSASVGDRVTITCRASQGISNYLAWFQQKPGKAPKSLIYAASSLQSGVPSKFSGSGSGTDFTLAISSLQPEDFATYYCQQYNSFPYTFGQGTTLEIK
On to B1, for which the Kd in assay [1] and in assay [2] was 0.668 nM each time.

B2: 6-G23-F (antibody, V domains shown)
VH: QVQLVQSGAEVKKPGASVKVSCKASGYTFTSYYIHWVRQAPGQGLEWMGIIDPSDGSTNYAQKFQGRVTMTRDTSTSTVYMELSSLRSEDTAVYYCARDREYNYYGLDVWGQGTTVTVSS
VL: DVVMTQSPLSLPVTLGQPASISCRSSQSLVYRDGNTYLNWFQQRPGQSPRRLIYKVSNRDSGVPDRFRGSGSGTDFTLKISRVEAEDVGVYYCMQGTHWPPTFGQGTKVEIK
For the molecule B2, the Kd in assay [3] and in assay [2] was 0.16 nM throughout.

B3: 7-I1-B (antibody, V domains shown)
VH: EVQLVESGGGLVKPGGSLRLSCAASGFTFSNTWMSWVRQAPGKGLEWVGRIKSKSDGGTTDYAAPVKGRFTISRDDSKNTLYLQMNSLKTEDTAVYYCTQYYWNSFDYWGQGTLVTVSS
VL: not shown
For B3, the figures for the Kd in assay [3] and in assay [2] were 0.686 nM and 0.68 nM, respectively.

B4: 10-O18-A (antibody, V domains shown)
VH: QVQLQESGPGLVKPSETLSLTCTVSGGSINSYYWSWIRQPPGKGLEWIGYIFYSGITNYNPSLKSRVTISLDTSKNQFSLKLSSVTAADTAVYYCARIGVAGFYFDYWGQGTLVTVSS
VL: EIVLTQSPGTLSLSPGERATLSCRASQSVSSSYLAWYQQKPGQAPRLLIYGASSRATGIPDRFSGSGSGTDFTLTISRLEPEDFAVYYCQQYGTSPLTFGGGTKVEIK
Consider B4, for which the results for the Kd in assay [1] and in assay [2] were 0.602 nM and 0.62 nM, respectively.

One may read the Kd as the concentration at which binding is half-saturated.
